Measurements taken from patent US20230265179A1 (TWIST BIOSCIENCE, published 2023).
Where a chain is given by its changes, count along the chain named.

T1: CD40L (UniProt P29965 1-261, limits assumed)
T1 construct: whole, on cells; also called cytokine over-expressing Expi293 cells (CD40L)
T1 sequence (looked up): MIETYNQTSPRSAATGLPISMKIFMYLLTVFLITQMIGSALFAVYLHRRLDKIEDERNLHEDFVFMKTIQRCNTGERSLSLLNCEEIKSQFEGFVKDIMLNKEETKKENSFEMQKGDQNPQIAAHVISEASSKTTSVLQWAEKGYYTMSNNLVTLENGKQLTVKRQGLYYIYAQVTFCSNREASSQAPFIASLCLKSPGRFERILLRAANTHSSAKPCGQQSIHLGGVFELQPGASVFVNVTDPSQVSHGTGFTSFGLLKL

B1: CD40L-233 (antibody, V domains shown)
VH: EVQLLESGGGLVQPGGSLRLSCAASGFTFEDYQMGWVRQAPGKGLEWVSSITSEGGSTYYADSVKGRFTISRDNSKNTLYLQMNSLRAEDTAVYYCAKPDKDFDYWGQGTLVTVSS
VL: DIQMTQSPSSLSASVGDRVTITCRASQFIGRYFNWYQQKPGKAPKLLIYGATILADGVPSRFSGSGSGTDFTLTISSLQPEDFATYYCQQNNNWPTTFGQGTKVEIK
B2: CD40L-239 (antibody, V domains shown)
VH: EVQLLESGGGLVQPGGSLRLSCAASGFIFQWYDMGWVRQAPGKGLEWVSSINDRGDQTYYADSVKGRFTISRDNSKNTLYLQMNSLRAEDTAVYYCARVAFSGSFDYWGQGTLVTVSS
VL: DIQMTQSPSSLSASVGDRVTITCRASQSILSYLNWYQQKPGKAPKLLIYFTSTLAAGVPSRFSGSGSGTDFTLTISSLQPEDFATYYCQQSYSSAPTFGQGTKVEIK
B3: CD40L-342 (antibody, V domains shown)
VH: EVQLLESGGGLVQPGGSLRLSCAASGFTFSKYAMNWVRQAPGKGLEWVSAISGSGESTYYADSVKGRFTISRDNSKNTLYLQMNSLRAEDTAVYYCARAHDYDSMLMDYWGQGTLVTVSS
VL: B2 VL with L30S, S31R, F50A, T51E, A55Q, A56S, S93T, S94I, A95P, P96L
B4: CD40L-341 (antibody, V domains shown)
VH: EVQLLESGGGLVQPGGSLRLSCAASGFTFRSYAMTWVRQAPGKGLEWVSAISGSGDRTYYGDSVKGRFTISRDNSKNTLYLQMNSLRAEDTAVYYCARIARSEDFWSGYYTDFDFDYWGQGTLVTVSS
VL: B2 VL with L30S, S31T, F50R, T51A, A55Q, A56S, S94N, A95P
B5: CD40L-344 (antibody, V domains shown)
VH: B3 VH
VL: DIQMTQSPSSLSASVGDRVTITCRASESITTYLNWYQQKPGKAPKLLIYTASGLQSGVPSRFSGSGSGTDFTLTISSLQPEDFATYYCQQSYTVPITFGQGTKVEIK
B6: CD40L-330 (antibody, V domains shown)
VH: B3 VH
VL: B2 VL with S28T, L30G, F50S, T51A, A55Q, A56T, S94P, A95P, P96L, Q100G
B7: CD40L-343 (antibody, V domains shown)
VH: B3 VH
VL: DIQMTQSPSSLSASVGDRVTITCRASQYINNYLNWYQQKPGKAPKLLIYASSTLQRGVPSRFSGSGSGTDFTLTISSLQPEDFATYYCQQSFSTPITFGQGTKVEIK
B8: CD40L-378 (antibody, V domains shown)
VH: B4 VH
VL: B5 VL with E27Q, T30S, T50R, G53T, T93S, V94N, I96P, Q100G
B9: CD40L-266 (antibody, V domains shown)
VH: EVQLLESGGGLVQPGGSLRLSCAASGGYNFRDYMHWVRQAPGKGLEWVGKINYAGNTDYNDSVKGRFTISRDNSKNTLYLQMNSLRAEDTAVYYCAKNLGQGFDYWGQGTLVTVSS
VL: DIQMTQSPSSLSASVGDRVTITCRASQNIRSYLNWYQQKPGKAPKLLIYSASVLQSGVPSRFSGSGSGTDFTLTISSLQPEDFATYYCKSRAYSGNLVEFGQGTKVEIK
B10: CD40L-338 (antibody, V domains shown)
VH: EVQLLESGGGLVQPGGSLRLSCAASGFTFGSFAMNWVRQAPGKGLEWVSAITGGGGSTYYADSVKGRFTISRDNSKNTLYLQMNSLRAEDTAVYYCAHGLAWRWGFDYWGQGTLVTVSS
VL: DIQMTQSPSSLSASVGDRVTITCRASQNIDRYLNWYQQKPGKAPKLLIYAASALQSGVPSRFSGSGSGTDFTLTISSLQPEDFATYYCQQSYSILPVTFGQGTKVEIK
B11: CD40L-379 (antibody, V domains shown)
VH: B10 VH
VL: B10 VL with Q101G
B12: CD40L-319 (antibody, V domains shown)
VH: EVQLLESGGGLVQPGGSLRLSCAASGFTFGHYAMGWVRQAPGKGLEWVSAISGSGAGTYYADSVKGRFTISRDNSKNTLYLQMNSLRAEDTAVYYCATHDSPYYYIDVWGQGTLVTVSS
VL: B5 VL with E27Q, T30Y, G53A, S56T, T93R, V94I, I96L, Q100G
B13: CD40L-350 (antibody, V domains shown)
VH: EVQLLESGGGLVQPGGSLRLSCAASGLTFGSYAMSWVRQAPGKGLEWVSAISGSVGSTYYADSVKGRFTISRDNSKNTLYLQMNSLRAEDTAVYYCARHGGYYYYYMDVWGQGTLVTVSS
VL: DIQMTQSPSSLSASVGDRVTITCRASQSISSYVSWYQQKPGKAPKLLIYDASSLSGGVPSRFSGSGSGTDFTLTISSLQPEDFATYYCQQSYRIPLTFGGGTKVEIK
B14: CD40L-348 (antibody, V domains shown)
VH: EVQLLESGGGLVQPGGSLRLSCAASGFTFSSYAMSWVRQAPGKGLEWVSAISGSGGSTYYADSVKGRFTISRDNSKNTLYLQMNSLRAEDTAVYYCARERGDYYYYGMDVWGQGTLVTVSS
VL: DIQMTQSPSSLSASVGDRVTITCRASQTISNFLNWYQQKPGKAPKLLIYAASTLQYGVPSRFSGSGSGTDFTLTISSLQPEDFATYYCQQNYRSPLTFGGGTKVEIK
B15: CD40L-321 (antibody, V domains shown)
VH: EVQLLESGGGLVQPGGSLRLSCAASGFSFRSYAMSWVRQAPGKGLEWVSIISGSGGSTSYADSVKGRFTISRDNSKNTLYLQMNSLRAEDTAVYYCARYYFGLSSNWFNPWGQGTLVTVSS
VL: DIQMTQSPSSLSAYVGDRVTITCRASQSIGIHLNWYQQKPGKAPKLLIYGASRLQTGVPSRFSGSGSGTDFTLTISSLQPEDFATYYCQQSYSAPLTFGGGTKVEIK
B16: CD40L-349 (antibody, V domains shown)
VH: EVQLLESGGGLVQPGGSLRLSCAASGFGFSSYAMSWVRQAPGKGLEWVSAISGGGGSIYYADSVKGRFTISRDNSKNTLYLQMNSLRAEDTAVYYCATDYGDYDRLNFDLWGQGTLVTVSS
VL: B14 VL with S30G, N31S, F32Y, Y56P, N91S, R93E, S94T
B17: CD40L-347 (antibody, V domains shown)
VH: B3 VH with K31N, N35S, S52T, E56S, S57T
VL: B14 VL with T28S, S30G, N31T, A50G, A51T, T53N, Y56S, N91G, S94T
B18: CD40L-340 (antibody, V domains shown)
VH: B16 VH
VL: B14 VL with T28S, I29V, N31R, Y56P, N91S, R93E, S94T, G100Q
B19: CD40L-339 (antibody, V domains shown)
VH: B3 VH with K31N, N35S, S52T, E56S, S57T
VL: B5 VL with E27Q, T30G, Y32F, T50G, A51T, G53N, S91G, T93R, V94T, I96L
B20: CD40L-437 (antibody, V domains shown)
VH: EVQLLESGGGLVQPGGSLRLSCAASGFSFSSYAMAWVRQAPGKGLEWVSSISGSGGGGNTYYADSVKGRFTISRDNSKNTLYLQMNSLRAEDTAVYYCARHHERDYYGMDVWGQGTLVTVSS
VL: B14 VL with N91T, R93S, S94F
B21: CD40L-386 (antibody, V domains shown)
VH: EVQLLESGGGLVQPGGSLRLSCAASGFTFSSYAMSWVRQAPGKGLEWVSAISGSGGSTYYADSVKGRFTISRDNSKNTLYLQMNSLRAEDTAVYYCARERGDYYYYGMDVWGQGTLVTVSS
VL: B5 VL with Q100G
B22: CD40L-429 (antibody, V domains shown)
VH: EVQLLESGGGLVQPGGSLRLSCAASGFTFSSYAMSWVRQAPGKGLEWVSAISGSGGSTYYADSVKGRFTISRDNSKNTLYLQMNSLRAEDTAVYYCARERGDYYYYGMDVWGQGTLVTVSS
VL: B14 VL with N31Y, F32Y, A50D, S52T, T53S, Y56S, N91T, R93S, S94L
B23: CD40L-354 (antibody, V domains shown)
VH: B20 VH
VL: B15 VL with Y14S, I31E, H32Y, G50S, R53S, T56N, S91T, A94F
B24: CD40L-345 (antibody, V domains shown)
VH: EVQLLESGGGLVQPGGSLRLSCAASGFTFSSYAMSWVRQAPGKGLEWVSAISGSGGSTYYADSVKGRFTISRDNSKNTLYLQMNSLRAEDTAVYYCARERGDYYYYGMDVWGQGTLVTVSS
VL: B14 VL with G100Q
B25: CD40L-250 (antibody, V domains shown)
VH: EVQLLESGGGLVQPGGSLRLSCAASGFIFQWYDMGWVRQAPGKGLEWVSSIDWRGLLTYYADSVKGRFTISRDNSKNTLYLQMNSLRAEDTAVYYCAKAYYGGFDYWGQGTLVTVSS
VL: not shown
B26: CD40L-220 (antibody, V domains shown)
VH: EVQLLESGGGLVQPGGSLRLSCAASGGYNFRDYMHWVRQAPGKGLEWVSSITSEGGSTYYADSVKGRFTISRDNSKNTLYLQMNSLRAEDTAVYYCAKDLGQGFDYWGQGTLVTVSS
VL: DIQMTQSPSSLSASVGDRVTITCRTSQDIGNYLNWYQQKPGKAPKLLIYGTSYRYSGVPSRFSGSGSGTDFTLTISSLQPEDFATYYCQPSFVFPYTFGQGTKVEIK
B27: CD40L-241 (antibody, V domains shown)
VH: B26 VH with T52S, S53D, E54H, G56F, S57N, D99N
VL: DIQMTQSPSSLSASVGDRVTITCRTSQDISNYLNWYQQKPGKAPKLLIYAASNVESGVPSRFSGSGSGTDFTLTISSLQPEDFATYYCASRNGWNHVVFGQGTKVEIK

Target: T1, CD40L
Experiment: flow cytometry, 100 nM IgG, CD40L over-expressing Expi293 cells over parent Expi293 cells
Experimental: All incubations and washes were in buffer containing PBS+1% BSA. MFI Ratio is defined by the mean fluorescence intensity (MFI) of the cytokine over-expressing Expi293 cell over the Expi293 parent cell. […] EC50 was calculated in GraphPad Prism.

| Binder | 100 nM FACS (MFI Ratio) [MFI ratio] |
| --- | --- |
| B1 | 1.8 |
| B2 | 4.2 |
| B3 | 124 |
| B4 | 125 |
| B5 | 4.9 |
| B6 | 27.1 |
| B7 | 35.8 |
| B8 | 8.1 |
| B9 | 1.7 |
| B10 | 34.3 |
| B11 | 71.2 |
| B12 | 4.2 |
| B13 | 66.4 |
| B14 | 6.2 |
| B15 | 1.7 |
| B16 | 5.8 |
| B17 | 11.6 |
| B18 | 61.5 |
| B19 | 56.6 |
| B20 | 4.3 |
| B21 | 1.6 |
| B22 | 5 |
| B23 | 6.9 |
| B24 | 7.7 |
| B25 | 27.1 |
| B26 | 4.3 |
| B27 | 1.7 |
